Experimental findings from publication PMC2610409 are described below.

The experiment has as its target RAD18-CFP (human) (UniProt Q9NS91). In words: FRET or BRET. Background: In BRET a luciferase serves as donor, and the signal depends on an acceptor being close.
Chain of UniProt Q9NS91 (Q9NS91 whole entry): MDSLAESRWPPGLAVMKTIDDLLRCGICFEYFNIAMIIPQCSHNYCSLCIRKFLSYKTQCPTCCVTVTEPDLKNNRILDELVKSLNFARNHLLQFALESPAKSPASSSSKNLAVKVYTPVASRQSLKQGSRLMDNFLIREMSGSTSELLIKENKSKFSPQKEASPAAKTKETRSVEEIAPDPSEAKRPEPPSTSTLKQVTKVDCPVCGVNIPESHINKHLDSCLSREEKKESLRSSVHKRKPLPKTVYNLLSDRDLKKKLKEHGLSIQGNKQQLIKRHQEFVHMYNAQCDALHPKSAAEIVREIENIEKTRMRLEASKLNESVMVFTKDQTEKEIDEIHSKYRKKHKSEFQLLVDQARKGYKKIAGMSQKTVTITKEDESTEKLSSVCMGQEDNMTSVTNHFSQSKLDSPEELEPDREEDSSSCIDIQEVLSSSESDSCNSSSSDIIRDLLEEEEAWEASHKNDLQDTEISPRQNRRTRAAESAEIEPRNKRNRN

As to “RAD6A-YFP (from UniProt P49459 1-152) (natural protein)”, the FRET efficiency was determined as 72%.
